{"source": "paper PMC6226536", "assay_in_all_cases": "Y2H (α-galactosidase activity)", "key": {"[1]": {"molecular_target": "SlTRM17/20a fragment", "conditions": "read off a plot"}, "[2]": {"molecular_target": "SlTRM25 fragment", "conditions": "parent: est. 4.2; read off a plot"}, "[3]": {"molecular_target": "SlTRM5 fragment", "conditions": "read off a plot"}, "[4]": {"molecular_target": "OVATE", "conditions": "read off a plot"}, "[5]": {"molecular_target": "SlOFP20", "conditions": "read off a plot"}, "[6]": {"molecular_target": "OVATE^D280R", "conditions": "read off a plot"}, "[7]": {"molecular_target": "OVATE D280V", "conditions": "read off a plot"}, "[8]": {"molecular_target": "OVATE E299V", "conditions": "read off a plot"}, "[9]": {"molecular_target": "SlOFP20^D265R", "conditions": "read off a plot"}, "[10]": {"molecular_target": "SlOFP20 D265V", "conditions": "read off a plot"}, "[11]": {"molecular_target": "SlOFP20 D284V", "conditions": "read off a plot"}}}
{"substance": "OVATE D280R", "values": [{"measurement": "response (milliunits/(ml×cell))", "setting": "[1]; parent: est. 7.2", "value": 0.1}, {"measurement": "response (milliunits/(ml×cell))", "setting": "[2]", "value": 0.1}, {"measurement": "response (milliunits/(ml×cell))", "setting": "[3]; parent: est. 7.1", "value": 0.1}]}
{"substance": "OVATE D280V", "values": [{"measurement": "response (milliunits/(ml×cell))", "setting": "[1]; parent: est. 7.2", "value": 1.6}, {"measurement": "response (milliunits/(ml×cell))", "setting": "[2]", "value": 0.1}, {"measurement": "response (milliunits/(ml×cell))", "setting": "[3]; parent: est. 7.1", "value": 0.1}]}
{"substance": "OVATE E299V", "values": [{"measurement": "response (milliunits/(ml×cell))", "setting": "[1]; parent: est. 7.2", "value": 5}, {"measurement": "response (milliunits/(ml×cell))", "setting": "[2]", "value": 2.5}, {"measurement": "response (milliunits/(ml×cell))", "setting": "[3]; parent: est. 7.1", "value": 3.1}]}
{"substance": "SlOFP20 D265R", "values": [{"measurement": "response (milliunits/(ml×cell))", "setting": "[1]; parent: est. 7.9", "value": 5.3}, {"measurement": "response (milliunits/(ml×cell))", "setting": "[2]", "value": 0.1}, {"measurement": "response (milliunits/(ml×cell))", "setting": "[3]; parent: est. 5.2", "value": 0.1}]}
{"substance": "SlOFP20 D265V", "values": [{"measurement": "response (milliunits/(ml×cell))", "setting": "[1]; parent: est. 7.9", "value": 6}, {"measurement": "response (milliunits/(ml×cell))", "setting": "[2]", "value": 0.1}, {"measurement": "response (milliunits/(ml×cell))", "setting": "[3]; parent: est. 5.2", "value": 0.1}]}
{"substance": "SlOFP20 D284V", "values": [{"measurement": "response (milliunits/(ml×cell))", "setting": "[1]; parent: est. 7.9", "value": 7.2}, {"measurement": "response (milliunits/(ml×cell))", "setting": "[2]", "value": 0.25}, {"measurement": "response (milliunits/(ml×cell))", "setting": "[3]; parent: est. 5.2", "value": 2.5}]}
{"substance": "SlTRM5 fragment R374V", "values": [{"measurement": "response (milliunits/(ml×cell))", "setting": "[4]; parent: est. 7.1", "value": 4.7}, {"measurement": "response (milliunits/(ml×cell))", "setting": "[5]; parent: est. 5.2", "value": 3.4}]}
{"substance": "SlTRM17/20a fragment K318V", "values": [{"measurement": "response (milliunits/(ml×cell))", "setting": "[4]; parent: est. 7.2", "value": 4.2}, {"measurement": "response (milliunits/(ml×cell))", "setting": "[5]; parent: est. 7.9", "value": 4.5}]}
{"substance": "SlTRM25 fragment K327V", "values": [{"measurement": "response (milliunits/(ml×cell))", "setting": "[4]; parent: est. 4.2", "value": 2.1}, {"measurement": "response (milliunits/(ml×cell))", "setting": "[5]; parent: est. 4.2", "value": 1.9}]}
{"substance": "m3; m1 SlTRM5:R374V; OVATE:D280R", "values": [{"measurement": "response (milliunits/(ml×cell))", "setting": "[6]; parent: est. 7.1", "value": 0.1}]}
{"substance": "m3; m1 SlTRM5:R374V; OVATE:D280V", "values": [{"measurement": "response (milliunits/(ml×cell))", "setting": "[7]; parent: est. 7.1", "value": 0.1}]}
{"substance": "m3; m1 SlTRM5:R374V; OVATE:E299V", "values": [{"measurement": "response (milliunits/(ml×cell))", "setting": "[8]; parent: est. 7.1", "value": 3.1}]}
{"substance": "m3; m2 SlTRM5:R374V; SlOFP20:D265R", "values": [{"measurement": "response (milliunits/(ml×cell))", "setting": "[9]; parent: est. 5.2", "value": 0.1}]}
{"substance": "m3; m2 SlTRM5:R374V; SlOFP20:D265V", "values": [{"measurement": "response (milliunits/(ml×cell))", "setting": "[10]; parent: est. 5.2", "value": 0.1}]}
{"substance": "m3; m2 SlTRM5:R374V; SlOFP20:D284V", "values": [{"measurement": "response (milliunits/(ml×cell))", "setting": "[11]; parent: est. 5.2", "value": 2.4}]}
{"substance": "m4; m1 SlTRM17/20a:K318V; OVATE:D280R", "values": [{"measurement": "response (milliunits/(ml×cell))", "setting": "[6]; parent: est. 7.2", "value": 0.25}]}
{"substance": "m4; m1 SlTRM17/20a:K318V; OVATE:D280V", "values": [{"measurement": "response (milliunits/(ml×cell))", "setting": "[7]; parent: est. 7.2", "value": 0.9}]}
{"substance": "m4; m1 SlTRM17/20a:K318V; OVATE:E299V", "values": [{"measurement": "response (milliunits/(ml×cell))", "setting": "[8]; parent: est. 7.2", "value": 4.1}]}
{"substance": "m4; m2 SlTRM17/20a:K318V; SlOFP20:D265R", "values": [{"measurement": "response (milliunits/(ml×cell))", "setting": "[9]; parent: est. 7.9", "value": 3}]}
{"substance": "m4; m2 SlTRM17/20a:K318V; SlOFP20:D265V", "values": [{"measurement": "response (milliunits/(ml×cell))", "setting": "[10]; parent: est. 7.9", "value": 3.6}]}
{"substance": "m4; m2 SlTRM17/20a:K318V; SlOFP20:D284V", "values": [{"measurement": "response (milliunits/(ml×cell))", "setting": "[11]; parent: est. 7.9", "value": 4.8}]}
{"substance": "m5; m1 SlTRM25:K327V; OVATE:D280R", "values": [{"measurement": "response (milliunits/(ml×cell))", "setting": "[6]; parent: est. 4.2", "value": 0.1}]}
{"substance": "m5; m1 SlTRM25:K327V; OVATE:D280V", "values": [{"measurement": "response (milliunits/(ml×cell))", "setting": "[7]; parent: est. 4.2", "value": 0.1}]}
{"substance": "m5; m1 SlTRM25:K327V; OVATE:E299V", "values": [{"measurement": "response (milliunits/(ml×cell))", "setting": "[8]; parent: est. 4.2", "value": 2.3}]}
{"substance": "m5; m2 SlTRM25:K327V; SlOFP20:D265R", "values": [{"measurement": "response (milliunits/(ml×cell))", "setting": "[9]; parent: est. 4.2", "value": 0.1}]}
{"substance": "m5; m2 SlTRM25:K327V; SlOFP20:D265V", "values": [{"measurement": "response (milliunits/(ml×cell))", "setting": "[10]; parent: est. 4.2", "value": 0.1}]}
{"substance": "m5; m2 SlTRM25:K327V; SlOFP20:D284V", "values": [{"measurement": "response (milliunits/(ml×cell))", "setting": "[11]; parent: est. 4.2", "value": 0.25}]}
